Data as given in patent US20030130184, “Methods of inducing cell death” (The University of Bristol, published 2003).

Target: T1, HPV16 E2Ct (E2 DNA binding domain) (Human papillomavirus type 16, UniProt P0DKA0 SEQ:1-87)
T1 chain: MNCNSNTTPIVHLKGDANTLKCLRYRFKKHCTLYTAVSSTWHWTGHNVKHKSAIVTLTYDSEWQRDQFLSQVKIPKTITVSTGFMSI
Assay: EMSA; 10, 50, 250 nM protein; binds tightly; 20 mM HEPES pH 7.9, 25 mM KCl, poly[d(I-C)], 20 C; refolded E2Ct also binds (FIG. 7a)
Details: chain copies: 2 (stated, dimer); label: 32P 5' end

B1: HPV16 E2 site 1, E2(1) (dsDNA)
DNA 1: TTGAACCGAAACCGGTTAGT
DNA 2: ACTAACCGGTTTCGGTTCAA
- binding result: binds
